Data from the nanobody polyreactivity screen of Harvey et al. (2022).

test: yeast display, Sf9 membrane polyspecificity reagent, FACS + sequencing; frameworks hold sequencing errors
How it was run: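 Nanobodies came from a synthetic yeast display library in Saccharomyces cerevisiae BJ5465, induced with galactose for 36–48 hours and stained for 1 hour at 4 °C with 10% biotinylated, detergent-solubilized Sf9 membrane reagent. Cells were enriched on streptavidin microbeads and then FACS-sorted, with low and high (top ~1%) gates set on anti-HA fluorescence for expression and streptavidin fluorescence for reagent binding. Each polyreactivity label reflects the gate a clone came from. Genes were amplified by colony PCR, sequenced by MiSeq 2 × 250 and filtered by CDR length.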

Row | Sequence | polyreactivity (PSR sort gate)
1 | QVQLVESGGGLVQAGGSLRLSCAASGYTFGYYTMGWYRQAPGKERELVASIDSGGGTYYADSVKGRFTISRDNAKNTVYLQMNSLKPEDTAVYYCAARSAILKSGYLMDYWGQGTQVTVSS | low polyreactivity
2 | QDQLVESGGGLVQAGGSLRLSCAASGFIFARYVMGWYRPAPGKERELVASITGSGVSTYYADSVKGRFTISRDNAKNTVYLQMNSLKPEDTAVYYCATRVYRRYYLNSWYNYWGQGTQVTVSS | high polyreactivity
3 | QVQLVESGGGLVQAGGSLRLSCAASGSIFGIYAMGWYRQAPGKERELVAAIRRGGSTYYADSVKGRFTISRDNAKNTVYLQMNSLKPEDTAVYYCNTDYHRLLRSRPKYYYWGQGTQVTVSS | high polyreactivity
4 | QVQLVESGGGLVQAGGILRLSCAASGRIFRVNTMGWYRKAPGKERELVAAIRSSGTRTYYADSVKGRFTISRDNAKNTVYLQMNSVKPEDTAVYYCAAYAWRYQAWEFGYWGQGTQVTVSS | high polyreactivity
5 | QVQLVESGGGLVQAGGSLRLSCAASGSIFRRYAMGWYRQEPGKEMEFVAAITGSGGRTYYADSVKGRITISRDNAKNTVYLQMNSLKPEDTAVYYCAARRRDRVTYYYWGQGTQVTVSS | high polyreactivity
6 | QVQLVESGGGLVQAGGSLRLSCAASGRIFNRYAMGWYRQAPGKERELVAAITSGGSTYYADSVKGRFTISRDNAKNTVYLPMNSLKREDTAFYYCAALPRSNSYGYCGQGTQVTVSS | high polyreactivity
7 | QVQLVESGGGLVQAGGSLRLSCAASGKIFYEYTMGWYRQAPGKERELVAAISWSGVSTYYADSVKGRFTISRDNAKNTVYLQMNSLKPEDTAVYYCAADRGNDYWGQGTQVTVSS | low polyreactivity
8 | QVQLVESGGGLVQAGGSLRLSCASSGSIFNTYTMGWYRQAPGKDRELVAAISSGGSTYYADSVKGRFTISRDNAKKTVYLQMNSLKPEDTAVYYCAAYGHSFQIYDYWGQGTHVTVSS | low polyreactivity
9 | QVQLVESGGGLVQAGGSLRLSCADSGSTFTRYAIGWYRQAPGKEMEFVAAISWSGGITYYADSVKGRFTISRDNAKNTVYFQMKSLKPEDTAVYYCAAKRRYTRGGYGVDYWGQGTQVTVSS | high polyreactivity
10 | QVQLVESGGGLVQAGGSLRLSCAASGFIISDYAMGWYRQAPGKERELVAVITWRSGSTYYADSVKGRFTISRDNAKNTVYFQMHSLKPVDTAVYYCAARYYRNYSQGRRLGYNYWGQGTQVTVSS | high polyreactivity
11 | QVQLVESGGGLVQAGGSLRLSCSASGSTYYNAMGWYRQAPGKERQLVAAIRFRSGSTYYADSVKGRFTISRDNAKNTVYLQMNSLKPEDTAVYYCAADNKRSWRYAYTYWGQGTQVTVSS | high polyreactivity
12 | QVQLVESGGGLVQAGGSLRLSCAASGRTFRYYAMGWYRQAPGKERELVARISWRGDSTRYADSVKGRFTISRDNAKNTVYVQMNSLKPEDTAVYYCAADTRFLVGPDKYGYWGQGTQVTESS | high polyreactivity
13 | QVQLVESGGGLVQAGGSHRLSSAASGTTFYGNAMGWYRQAPGKERELVAAISQGGGRTYYADSVKGRFTISRDIAKNTVYLQMISLKPEDTAVYYCAADVWWYRLDFDYWGQGTQVTVSS | high polyreactivity
14 | QVQLVESGGGLVQAGGSLRLTCAASGRTYNLYAMGWSRQAPGKERELVAAISSSTDSTYYAYSVKGRFTISRDNAKITVYLEMNSLKPEDTSVYYFAARRPSYPRYGYWGQGTQVTVSS | high polyreactivity
15 | QVQLVESGGGLVQAGGSLRLSCAASGFTFYRYAMGWYRQAPGKERELVAAISSGGRTTYADSVKGRFTISRDNAKNTVYLQMNSLKPEDTAVYYCVFVYVYDYYYWGQGTQVTVSS | high polyreactivity
16 | QVQLVESGGGLVQAGGSLRLSCAASGITFEYYDMGWYRQAPGKERELVAAISWSTDITYADSVKGRFTISRDNAKNTVYLQLNSLKPEDTAVYYCAALGGLSDFWHLYDYWGQGTQVTVSS | low polyreactivity

Row | Sequence | polyreactivity (PSR sort gate)
17 | QVQLVESGGGLVQAGGSLRLSCAASGSIFNYNAMGWYRQAPGKERELVAAMSGSGGRTYYADSVKGRFTISRDNAKYTVYLQMNSLKPEDTAVYYCATYVRITPYEYWGQGTQVTVSS | high polyreactivity
18 | QVQILESGGGLVQAEGSIRLSCDASGRTFRPYAMGWSRQAPGKDRELVAVISYSGVSTYYADSVKGRFTISRDTEQNNVYLLLNSQIPEDTAVYYCLIRFRKTHYDYWGQGSQVTVSS | high polyreactivity
19 | QVQLVESGGGLVQAGGSLRLSCAATGSTFDDNVMGWYRQAHGKVRELVAAITTSGGSTFYADSVKWRFTISRDNAKNTVYLQMNSLKPEDTAVYYCNAVYFGLWGYYARRSYNYWGQGTQVTVSS | low polyreactivity
20 | QVQLVESGGGLVQAGGSLRLSCAASGSTFDIYVMGWYRQAPGKESELVAAISRVGNTSYADSVKGRFTISRDNAKNTVNLQMNSLKPEDTAVYYCAADAPSWYDRQYDYWGQCTQVTVSS | low polyreactivity
21 | QVQLVDSGGGLVQAGGSLRLSCAASGFTFVYNVMGWNIQAPGKERELVAAINAGGGSTYYADSVKGRFTISRDNAKNTVYLQMNSLKPEDTAVYYGNARVRVRVGRNWSSYYYWGQGTQVTVSS | high polyreactivity
22 | QVQLVESGGGLVQAGASLRLSCAASGCTFVVNAMGWYRQAPGKERELVAAITDGSSTNYADSVKGRFTISRDNAKYTVYLQMTRLIRQDTAVYFCAAVPYIDLDDINVEHPQYGYWGQGTQVTVSS | low polyreactivity
23 | QVQLVESGRGLVQAGGSLRLSCAASGRIIRWNAMGWYRQAPGKERELVAGISGSGGSTYYADSVKGRFTISRDNAKNTVYLQMNSLKPEDTAVYYCAADHYRSRYDYWGQGTQVTVSS | low polyreactivity
24 | QVQLVESGGGLVQAGGSLRLSCAASGSILKFNAMGWYRQAPGKERELVAAITRGTNTYYADSVKGRFTISRDNANNTFFLQMNSLKPEDTAVYYCAARLPYNAIGYYYWGQGTQVTVSS | low polyreactivity
25 | QVQLVESGGGLVQAGGSLRLSCAASGSTFYGYTMGWYRQAPGKERELVAVITSGGSTYYADSVKGRFTISRDNAKNTVYLQMNSLKPEDTAVYYCAKRYGYPAYGRPCRIGRTYDYWGQGTQVTVSS | low polyreactivity
26 | QVQLVESGGGLVQAGGSLRLSCAASGSIIKRNDMGWYRQAPGKERELVASITWRGGRTYYADSVKGRFTISRDNAKNTVYLQMNSLTPEDTSVYYCATTQYPSHYDAYGYWGQGTQVTVSS | high polyreactivity
27 | QDQLVESGGGLDQARGSLRLICAASGSTFKYYAMPSYRQAPGKERELVAAISWSGGNTYYADSVKGRFTISRENAKNTDYLQMNCLKPEDTAVYYCAADTKVGNGIKFDYWGQGTHVTVSS | high polyreactivity
28 | QVHLVESGGGLVQAGGSLRLSCAASGSTFTRNVMGWYRQAPGKERELVASISRSGGRTYYADSVKGRFTISRDNAKNTVYLQMNSLKPEDTAVYYCAAKSFYYLDPYDYWGQGTQVTVSS | high polyreactivity
29 | QVELQVSGGGLVRAGGSLRLSCAASGNIFDADIMGWYRQAPGKERELVASITGGGSTSYAESAKGRFTISRDNAKNAVYLQMNRLKPEDTAVYYCAAAAYYADFDYWGQGTQVTVSS | low polyreactivity
30 | QDQLVESGGALVQAGGSLLLSCAASGITFGDHAMGWYRQAPGKEWELFAAISWSGDRTFYADSVTGRFTISRDNAKNTVSLQMNSLNPADTAVYYCNAEIGWHNEGRLSTYDYWGQGTQVTVSS | low polyreactivity
31 | QVQLVESGGGIVQAGGSLRLSSAASGNKFSLNGMGWYRQAPGKEREFVAAITWSVGSRYYADSVKGRLTISRDNAKHTVYLPMNILKPEDTAVYYCAATVSDLYKIEYYYWGQGTQVSVSS | low polyreactivity
32 | QVQLVESGGGLVQAGGSLRLSCAASGLIFVGNAMGWYRQAPGKERELVAAISSRGGRTYYADSVKGRFTISRDNAKNTVYLQMNSLKPEDTAVYYCNAAKSQWGFEYWGQGTQVTVSS | high polyreactivity
